In patent US6764837 (BOARD OF TRUSTEES OF THE UNIVERSITY OF ARKANSAS, dated 2004):

Experiments:
[1] = molecular target: T1, RpoA (RNAP alpha subunit), untagged (Agrobacterium tumefaciens) (UniProt P0A4E3); assay: cell_activity; conditions: pPS1.3 in E. coli MC4100(pSY215) with VirGcon; vector control 3; indirect reporter
T1 sequence: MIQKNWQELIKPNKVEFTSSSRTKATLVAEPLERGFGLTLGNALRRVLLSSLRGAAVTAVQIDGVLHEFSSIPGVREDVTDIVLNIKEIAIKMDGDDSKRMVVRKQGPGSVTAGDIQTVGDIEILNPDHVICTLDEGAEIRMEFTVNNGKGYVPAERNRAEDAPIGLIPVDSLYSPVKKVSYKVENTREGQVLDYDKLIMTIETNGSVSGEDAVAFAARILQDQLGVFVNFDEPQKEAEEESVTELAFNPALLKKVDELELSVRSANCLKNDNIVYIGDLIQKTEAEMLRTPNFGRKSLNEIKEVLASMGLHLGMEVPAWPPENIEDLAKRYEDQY

[2] = molecular target: T2, RpoA delta C-terminal 8 (residues 1-328) deletion of 329-336 (Agrobacterium tumefaciens) (UniProt P0A4E3); assay: cell_activity; conditions: pAD8 in E. coli MC4100(pSY215) with VirGcon; vector control 3; indirect reporter
T2 sequence: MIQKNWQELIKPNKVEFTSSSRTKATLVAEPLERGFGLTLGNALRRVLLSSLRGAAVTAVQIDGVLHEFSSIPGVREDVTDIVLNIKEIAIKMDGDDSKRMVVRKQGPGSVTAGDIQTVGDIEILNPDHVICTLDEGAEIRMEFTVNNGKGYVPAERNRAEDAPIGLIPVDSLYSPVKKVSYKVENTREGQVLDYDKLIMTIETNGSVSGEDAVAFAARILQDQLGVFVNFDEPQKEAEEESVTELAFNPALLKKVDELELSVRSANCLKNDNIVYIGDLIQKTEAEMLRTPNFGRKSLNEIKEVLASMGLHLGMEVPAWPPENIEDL

[3] = molecular target: T3, E. coli RNA polymerase β′ subunit (Escherichia coli, UniProt P0A8T7 1-1407); assay: in vitro reconstitution of RNAP, SDS-PAGE (FIG. 4A)
T3 construct: also called E. coli β′

[4] = molecular target: T4, E. coli RNA polymerase σ70 subunit (Escherichia coli, UniProt P00579 1-613); assay: as above
T4 construct: also called σ^70

[5] = molecular target: T5, E. coli RNA polymerase β subunit (Escherichia coli, UniProt P0A8V2 1-1342); assay: as above
T5 construct: also called E. coli β
T5 sequence (P0A8V2 whole entry): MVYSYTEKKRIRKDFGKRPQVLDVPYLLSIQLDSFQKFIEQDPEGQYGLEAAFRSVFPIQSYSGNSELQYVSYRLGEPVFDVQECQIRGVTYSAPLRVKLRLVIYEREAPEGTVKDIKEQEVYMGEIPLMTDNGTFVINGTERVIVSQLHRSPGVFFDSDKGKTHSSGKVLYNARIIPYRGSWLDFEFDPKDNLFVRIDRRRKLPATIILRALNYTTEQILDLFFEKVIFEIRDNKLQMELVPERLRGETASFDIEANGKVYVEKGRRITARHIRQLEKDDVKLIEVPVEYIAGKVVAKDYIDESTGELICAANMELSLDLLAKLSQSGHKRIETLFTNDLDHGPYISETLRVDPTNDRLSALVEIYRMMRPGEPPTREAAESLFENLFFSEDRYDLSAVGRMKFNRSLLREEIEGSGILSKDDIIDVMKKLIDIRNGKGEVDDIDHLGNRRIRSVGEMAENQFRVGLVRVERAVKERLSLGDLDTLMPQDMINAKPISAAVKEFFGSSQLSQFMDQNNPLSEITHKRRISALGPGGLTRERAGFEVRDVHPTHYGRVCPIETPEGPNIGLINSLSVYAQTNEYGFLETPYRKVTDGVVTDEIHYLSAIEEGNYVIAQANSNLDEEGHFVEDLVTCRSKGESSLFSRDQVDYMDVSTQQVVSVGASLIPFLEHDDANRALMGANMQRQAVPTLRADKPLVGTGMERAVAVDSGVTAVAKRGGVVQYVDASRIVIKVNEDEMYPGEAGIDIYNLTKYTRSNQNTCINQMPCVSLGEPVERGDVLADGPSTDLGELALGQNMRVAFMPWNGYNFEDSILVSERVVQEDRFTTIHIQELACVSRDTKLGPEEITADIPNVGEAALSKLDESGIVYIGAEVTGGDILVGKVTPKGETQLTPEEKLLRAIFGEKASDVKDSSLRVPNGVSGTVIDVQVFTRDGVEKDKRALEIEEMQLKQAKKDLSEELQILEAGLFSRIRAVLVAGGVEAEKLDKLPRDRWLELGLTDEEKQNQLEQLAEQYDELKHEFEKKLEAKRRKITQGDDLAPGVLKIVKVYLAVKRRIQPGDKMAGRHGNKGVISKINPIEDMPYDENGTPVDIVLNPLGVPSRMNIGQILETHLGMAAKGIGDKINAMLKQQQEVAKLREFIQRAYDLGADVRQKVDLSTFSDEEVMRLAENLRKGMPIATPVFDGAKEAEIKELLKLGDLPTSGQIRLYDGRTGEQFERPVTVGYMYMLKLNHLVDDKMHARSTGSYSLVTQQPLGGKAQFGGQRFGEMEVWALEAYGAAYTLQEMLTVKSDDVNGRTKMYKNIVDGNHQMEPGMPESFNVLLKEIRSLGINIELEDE

T4 sequence (P00579 whole entry): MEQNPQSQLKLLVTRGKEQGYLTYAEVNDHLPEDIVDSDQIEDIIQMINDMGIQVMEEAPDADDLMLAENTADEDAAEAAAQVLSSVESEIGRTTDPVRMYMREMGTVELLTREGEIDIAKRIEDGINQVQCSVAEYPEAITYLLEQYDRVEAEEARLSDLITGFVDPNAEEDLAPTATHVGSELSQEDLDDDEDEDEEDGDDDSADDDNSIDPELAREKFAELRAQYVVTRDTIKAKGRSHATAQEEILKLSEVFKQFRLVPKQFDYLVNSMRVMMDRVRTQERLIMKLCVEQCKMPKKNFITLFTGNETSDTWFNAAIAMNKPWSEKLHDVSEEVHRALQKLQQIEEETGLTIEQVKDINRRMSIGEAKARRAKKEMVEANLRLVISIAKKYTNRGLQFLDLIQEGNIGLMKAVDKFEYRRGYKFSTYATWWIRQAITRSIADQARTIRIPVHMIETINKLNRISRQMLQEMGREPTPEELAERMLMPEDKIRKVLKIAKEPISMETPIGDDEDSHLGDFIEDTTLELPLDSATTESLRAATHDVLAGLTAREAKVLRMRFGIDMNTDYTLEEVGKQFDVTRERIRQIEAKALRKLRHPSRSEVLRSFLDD
T3 sequence (P0A8T7 whole entry): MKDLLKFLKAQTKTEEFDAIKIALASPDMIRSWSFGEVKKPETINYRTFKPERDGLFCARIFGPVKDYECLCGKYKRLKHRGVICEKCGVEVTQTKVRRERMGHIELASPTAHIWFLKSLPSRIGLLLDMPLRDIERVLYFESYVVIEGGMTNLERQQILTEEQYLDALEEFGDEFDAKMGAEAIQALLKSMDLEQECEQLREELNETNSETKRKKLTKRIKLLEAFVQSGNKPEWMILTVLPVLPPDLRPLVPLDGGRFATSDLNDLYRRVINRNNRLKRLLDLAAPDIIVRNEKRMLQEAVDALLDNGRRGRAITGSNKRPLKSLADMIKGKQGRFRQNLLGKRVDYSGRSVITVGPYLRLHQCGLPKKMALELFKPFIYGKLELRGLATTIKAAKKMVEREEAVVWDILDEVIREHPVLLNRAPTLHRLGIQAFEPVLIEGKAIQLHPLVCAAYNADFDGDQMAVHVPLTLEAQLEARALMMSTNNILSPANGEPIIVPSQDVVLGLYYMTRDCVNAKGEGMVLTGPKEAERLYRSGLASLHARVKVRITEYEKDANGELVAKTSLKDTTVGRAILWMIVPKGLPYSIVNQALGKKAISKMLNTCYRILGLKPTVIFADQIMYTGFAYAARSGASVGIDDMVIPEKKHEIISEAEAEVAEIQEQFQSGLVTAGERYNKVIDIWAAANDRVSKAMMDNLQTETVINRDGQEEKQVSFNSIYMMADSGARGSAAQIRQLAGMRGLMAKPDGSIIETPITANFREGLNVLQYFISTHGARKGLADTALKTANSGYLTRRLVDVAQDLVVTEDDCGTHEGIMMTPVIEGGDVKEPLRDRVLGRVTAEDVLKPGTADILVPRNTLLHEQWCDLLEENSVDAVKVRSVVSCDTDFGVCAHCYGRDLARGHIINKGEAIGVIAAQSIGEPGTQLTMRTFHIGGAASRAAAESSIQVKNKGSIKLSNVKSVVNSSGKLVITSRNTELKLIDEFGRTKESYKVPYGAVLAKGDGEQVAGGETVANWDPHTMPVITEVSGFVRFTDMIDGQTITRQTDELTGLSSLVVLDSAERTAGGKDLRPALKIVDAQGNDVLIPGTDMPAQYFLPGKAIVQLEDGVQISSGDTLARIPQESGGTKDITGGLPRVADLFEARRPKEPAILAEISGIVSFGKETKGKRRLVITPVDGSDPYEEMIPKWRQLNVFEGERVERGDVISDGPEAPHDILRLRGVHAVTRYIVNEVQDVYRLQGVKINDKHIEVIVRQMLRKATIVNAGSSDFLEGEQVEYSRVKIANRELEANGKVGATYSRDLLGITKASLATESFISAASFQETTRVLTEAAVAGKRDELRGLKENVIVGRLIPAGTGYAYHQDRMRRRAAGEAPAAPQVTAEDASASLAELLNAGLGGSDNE

| Molecule | activity [1] [Miller units] | activity [2] [Miller units] | binding result [3] | binding result [4] | binding result [5] |
| --- | --- | --- | --- | --- | --- |
| virBp::lacZ reporter promoter | 140 | 4 |  |  |  |
| His-tagged RpoA (α subunit of RNA polymerase) of A. tumefaciens (other, not shown: N-terminal His tag from a pQE vector (Qiagen)) MIQKNWQELIKPNKVEFTSSSRTKATLVAEPLERGFGLTLGNALRRVLLSSLRGAAVTAVQIDGVLHEFSSIPGVREDVTDIVLNIKEIAIKMDGDDSKRMVVRKQGPGSVTAGDIQTVGDIEILNPDHVICTLDEGAEIRMEFTVNNGKGYVPAERNRAEDAPIGLIPVDSLYSPVKKVSYKVENTREGQVLDYDKLIMTIETNGSVSGEDAVAFAARILQDQLGVFVNFDEPQKEAEEESVTELAFNPALLKKVDELELSVRSANCLKNDNIVYIGDLIQKTEAEMLRTPNFGRKSLNEIKEVLASMGLHLGMEVPAWPPENIEDLAKRYEDQY |  |  | binds | binds | binds |
